In the Human Domainome abundance scans (Beltran et al. 2025):
± gives the uncertainty stated by the source.

Assay: abundance fitness (aPCA) (normalised: wild type 0, dead -1); higher = more abundant; growth selection in yeast, the domain comes from the species named
Conditions: Homo sapiens

| Substance | abundance fitness |
| --- | --- |
| Lipoamide acyltransferase component of branched-chain alpha-keto acid dehydrogenase complex, mitochondrial Q212I, P11182 | -0.255 ± 0.089 |
| Lipoamide acyltransferase component of branched-chain alpha-keto acid dehydrogenase complex, mitochondrial Q212K, P11182 | 0.007 ± 0.061 |
| Lipoamide acyltransferase component of branched-chain alpha-keto acid dehydrogenase complex, mitochondrial Q212L, P11182 | -0.189 ± 0.043 |
| Lipoamide acyltransferase component of branched-chain alpha-keto acid dehydrogenase complex, mitochondrial Q212M, P11182 | -0.108 ± 0.049 |
| Lipoamide acyltransferase component of branched-chain alpha-keto acid dehydrogenase complex, mitochondrial Q212N, P11182 | 0.124 ± 0.14 |
| Lipoamide acyltransferase component of branched-chain alpha-keto acid dehydrogenase complex, mitochondrial Q212P, P11182 | -0.017 ± 0.036 |
| Lipoamide acyltransferase component of branched-chain alpha-keto acid dehydrogenase complex, mitochondrial Q212R, P11182 | 0.085 ± 0.042 |
| Lipoamide acyltransferase component of branched-chain alpha-keto acid dehydrogenase complex, mitochondrial Q212S, P11182 | 0.004 ± 0.04 |
| Lipoamide acyltransferase component of branched-chain alpha-keto acid dehydrogenase complex, mitochondrial Q212T, P11182 | 0.017 ± 0.06 |
| Lipoamide acyltransferase component of branched-chain alpha-keto acid dehydrogenase complex, mitochondrial Q212V, P11182 | -0.075 ± 0.038 |
| Lipoamide acyltransferase component of branched-chain alpha-keto acid dehydrogenase complex, mitochondrial Q212W, P11182 | -0.218 ± 0.046 |
| Lipoamide acyltransferase component of branched-chain alpha-keto acid dehydrogenase complex, mitochondrial Q212Y, P11182 | 0.108 ± 0.44 |
| Lipoamide acyltransferase component of branched-chain alpha-keto acid dehydrogenase complex, mitochondrial R178A, P11182 | -0.028 ± 0.043 |
| Lipoamide acyltransferase component of branched-chain alpha-keto acid dehydrogenase complex, mitochondrial R178C, P11182 | -0.173 ± 0.083 |
| Lipoamide acyltransferase component of branched-chain alpha-keto acid dehydrogenase complex, mitochondrial R178D, P11182 | -0.626 ± 0.076 |
| Lipoamide acyltransferase component of branched-chain alpha-keto acid dehydrogenase complex, mitochondrial R178E, P11182 | -0.022 ± 0.053 |
| Lipoamide acyltransferase component of branched-chain alpha-keto acid dehydrogenase complex, mitochondrial R178F, P11182 | -0.261 ± 0.1 |
| Lipoamide acyltransferase component of branched-chain alpha-keto acid dehydrogenase complex, mitochondrial R178G, P11182 | -0.361 ± 0.046 |
| Lipoamide acyltransferase component of branched-chain alpha-keto acid dehydrogenase complex, mitochondrial R178H, P11182 | -0.1 ± 0.072 |
| Lipoamide acyltransferase component of branched-chain alpha-keto acid dehydrogenase complex, mitochondrial R178I, P11182 | 0.002 ± 0.059 |
| Lipoamide acyltransferase component of branched-chain alpha-keto acid dehydrogenase complex, mitochondrial R178K, P11182 | 0.051 ± 0.058 |
| Lipoamide acyltransferase component of branched-chain alpha-keto acid dehydrogenase complex, mitochondrial R178L, P11182 | -0.165 ± 0.038 |
| Lipoamide acyltransferase component of branched-chain alpha-keto acid dehydrogenase complex, mitochondrial R178M, P11182 | -0.035 ± 0.048 |
| Lipoamide acyltransferase component of branched-chain alpha-keto acid dehydrogenase complex, mitochondrial R178N, P11182 | -0.241 ± 0.071 |

| Substance | abundance fitness |
| --- | --- |
| Lipoamide acyltransferase component of branched-chain alpha-keto acid dehydrogenase complex, mitochondrial R178P, P11182 | -1.38 ± 0.33 |
| Lipoamide acyltransferase component of branched-chain alpha-keto acid dehydrogenase complex, mitochondrial R178Q, P11182 | -0.024 ± 0.064 |
| Lipoamide acyltransferase component of branched-chain alpha-keto acid dehydrogenase complex, mitochondrial R178S, P11182 | -0.081 ± 0.057 |
| Lipoamide acyltransferase component of branched-chain alpha-keto acid dehydrogenase complex, mitochondrial R178T, P11182 | -0.114 ± 0.067 |
| Lipoamide acyltransferase component of branched-chain alpha-keto acid dehydrogenase complex, mitochondrial R178W, P11182 | -0.27 ± 0.053 |
| Lipoamide acyltransferase component of branched-chain alpha-keto acid dehydrogenase complex, mitochondrial R179A, P11182 | -0.048 ± 0.042 |
| Lipoamide acyltransferase component of branched-chain alpha-keto acid dehydrogenase complex, mitochondrial R179D, P11182 | -0.228 ± 0.11 |
| Lipoamide acyltransferase component of branched-chain alpha-keto acid dehydrogenase complex, mitochondrial R179E, P11182 | 0.011 ± 0.068 |
| Lipoamide acyltransferase component of branched-chain alpha-keto acid dehydrogenase complex, mitochondrial R179G, P11182 | -0.257 ± 0.038 |
| Lipoamide acyltransferase component of branched-chain alpha-keto acid dehydrogenase complex, mitochondrial R179H, P11182 | -0.368 ± 0.14 |
| Lipoamide acyltransferase component of branched-chain alpha-keto acid dehydrogenase complex, mitochondrial R179I, P11182 | -0.248 ± 0.059 |
| Lipoamide acyltransferase component of branched-chain alpha-keto acid dehydrogenase complex, mitochondrial R179K, P11182 | -0.021 ± 0.052 |
| Lipoamide acyltransferase component of branched-chain alpha-keto acid dehydrogenase complex, mitochondrial R179L, P11182 | -0.083 ± 0.042 |
| Lipoamide acyltransferase component of branched-chain alpha-keto acid dehydrogenase complex, mitochondrial R179M, P11182 | -0.087 ± 0.055 |
| Lipoamide acyltransferase component of branched-chain alpha-keto acid dehydrogenase complex, mitochondrial R179N, P11182 | -0.156 ± 0.079 |
| Lipoamide acyltransferase component of branched-chain alpha-keto acid dehydrogenase complex, mitochondrial R179P, P11182 | -1.11 ± 0.085 |
| Lipoamide acyltransferase component of branched-chain alpha-keto acid dehydrogenase complex, mitochondrial R179Q, P11182 | 0 ± 0.051 |
| Lipoamide acyltransferase component of branched-chain alpha-keto acid dehydrogenase complex, mitochondrial R179S, P11182 | -0.212 ± 0.057 |
| Lipoamide acyltransferase component of branched-chain alpha-keto acid dehydrogenase complex, mitochondrial R179T, P11182 | -0.304 ± 0.091 |
| Lipoamide acyltransferase component of branched-chain alpha-keto acid dehydrogenase complex, mitochondrial R179W, P11182 | -0.28 ± 0.049 |
| Lipoamide acyltransferase component of branched-chain alpha-keto acid dehydrogenase complex, mitochondrial R199A, P11182 | 0.016 ± 0.045 |
| Lipoamide acyltransferase component of branched-chain alpha-keto acid dehydrogenase complex, mitochondrial R199C, P11182 | -0.054 ± 0.065 |
| Lipoamide acyltransferase component of branched-chain alpha-keto acid dehydrogenase complex, mitochondrial R199E, P11182 | 0.088 ± 0.048 |
| Lipoamide acyltransferase component of branched-chain alpha-keto acid dehydrogenase complex, mitochondrial R199G, P11182 | -0.204 ± 0.036 |
